The values that follow come from patent US20260109776A1 (Amgen, published 2026).

Assay [1] has as its target T1, human TNFR1 (human, UniProt P19438 30-455).
T1 construct: whole, on cells
T1 sequence (looked up): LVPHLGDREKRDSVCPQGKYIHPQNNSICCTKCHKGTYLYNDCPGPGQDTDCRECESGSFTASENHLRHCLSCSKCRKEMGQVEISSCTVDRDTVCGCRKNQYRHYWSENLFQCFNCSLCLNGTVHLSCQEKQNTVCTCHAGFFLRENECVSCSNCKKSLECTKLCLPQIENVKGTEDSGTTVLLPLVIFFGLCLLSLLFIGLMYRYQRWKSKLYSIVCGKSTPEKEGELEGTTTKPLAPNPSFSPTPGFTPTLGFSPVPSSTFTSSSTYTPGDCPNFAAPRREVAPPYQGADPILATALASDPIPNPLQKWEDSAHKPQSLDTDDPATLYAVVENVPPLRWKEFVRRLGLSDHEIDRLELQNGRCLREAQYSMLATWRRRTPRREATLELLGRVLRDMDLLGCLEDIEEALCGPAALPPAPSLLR
Kind of assay: flow cytometry, HEK293 transfectants. Here is the method:
(§1) The binding affinity of anti-human CD40 antibodies to human and cynomolgus monkey CD40 was measured by Octet assay (Table 3), quantifying association rate (Kon), disassociation rate (Kdis), and equilibrium binding constant (KD). Cross-reactivity of anti-CD40 antibodies to related TNF receptor superfamily (TNFRSF) members was evaluated by expressing human TNFR1, TNFR2, TNFR10, or TNFR14 on HEK293 cells by transient transfection of expression vectors encoding these genes. Binding of indicated anti-human CD40 antibody to these transfected cells was determined by flow cytometry. […] Cross-reactivity of anti-CD40 antibodies to cynomolgus monkey and mouse CD40 was evaluated by expressing cynomolgus monkey or mouse CD40 on HEK293 cells by transient transfection of expression vectors encoding these genes. Binding of indicated anti-human CD40 antibody to cells overexpressing cynomolgus monkey and mouse CD40 was determined by flow cytometry.
Background: Flow cytometry measures light scatter and fluorescence of single cells or particles in a stream.

Assay [2] has as its target T2, human TNFR2 (human, UniProt P20333 23-461).
T2 construct: whole, on cells
T2 sequence (looked up): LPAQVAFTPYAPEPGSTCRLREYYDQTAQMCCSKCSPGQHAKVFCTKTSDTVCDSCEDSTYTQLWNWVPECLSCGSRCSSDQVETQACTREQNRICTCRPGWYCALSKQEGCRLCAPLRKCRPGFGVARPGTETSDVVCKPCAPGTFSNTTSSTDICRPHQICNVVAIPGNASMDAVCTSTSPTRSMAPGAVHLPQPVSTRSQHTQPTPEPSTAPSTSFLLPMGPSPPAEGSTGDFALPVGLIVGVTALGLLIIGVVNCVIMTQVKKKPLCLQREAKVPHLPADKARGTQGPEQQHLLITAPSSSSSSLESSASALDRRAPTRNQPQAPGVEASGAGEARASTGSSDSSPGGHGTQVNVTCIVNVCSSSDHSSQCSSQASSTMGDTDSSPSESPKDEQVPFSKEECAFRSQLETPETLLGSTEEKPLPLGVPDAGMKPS
Kind of assay: flow cytometry, HEK293 transfectants. Here is the method: as §1

Assay [3] deals with T3, human TNFR14 (human, UniProt Q92956 39-283).
T3 construct: whole, on cells
T3 sequence (looked up): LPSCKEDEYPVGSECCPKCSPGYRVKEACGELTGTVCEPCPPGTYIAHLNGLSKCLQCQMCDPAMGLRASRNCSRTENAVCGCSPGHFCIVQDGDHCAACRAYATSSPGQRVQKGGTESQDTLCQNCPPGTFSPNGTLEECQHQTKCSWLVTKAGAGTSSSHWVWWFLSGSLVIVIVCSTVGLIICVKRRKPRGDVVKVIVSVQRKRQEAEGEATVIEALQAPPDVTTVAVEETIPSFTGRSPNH
Briefly: flow cytometry, HEK293 transfectants. As to the method: as §1

The target of a further assay is T4, mouse CD40 on cells (mouse, UniProt P27512 20-289).
T4 construct: whole, on cells; also called mouse CD40 on HEK293 cells; CD40 on mouse B cells
T4 sequence (looked up): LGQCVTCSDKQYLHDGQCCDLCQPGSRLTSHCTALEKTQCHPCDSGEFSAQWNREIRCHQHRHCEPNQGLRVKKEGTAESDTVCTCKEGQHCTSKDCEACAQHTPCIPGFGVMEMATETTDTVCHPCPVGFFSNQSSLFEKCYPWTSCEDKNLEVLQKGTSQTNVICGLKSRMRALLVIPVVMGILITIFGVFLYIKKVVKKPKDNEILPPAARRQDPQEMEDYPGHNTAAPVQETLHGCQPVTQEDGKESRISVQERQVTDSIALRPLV
Briefly: flow cytometry, HEK293 transfectants vs control cells. Here is the method: as §1

Assay [4] concerns the target T1, human TNFR1. The description is as above. Here is the method: as §1
The target in assay [5] is T2, human TNFR2. Described as above. Here is the method:
as §1

For assay [6], the target named is T3, human TNFR14. The description is as above. As to the method:
as §1

For assay [7], the target named is T5, human CD40 on cells (human, UniProt P25942 21-277).
T5 construct: also called CD40 receptor on human B cells
Briefly: flow cytometry, labelled CD40L on CD40-293T cells, antibody at 5 ug/ml. Here is the method:
(§2) Percent ligand binding inhibition was calculated as [(CD40L binding gMFI in the absence of anti-CD40)−(CD40L binding gMFI in the presence of anti-CD40)]/(CD40L binding gMFI in the absence of anti-CD40). gMFI: geometric mean fluorescent intensity. All anti-CD40 antibodies show minimal effects on the ability of CD40L to bind to the CD40 receptor (Table 7).

Assay [8] concerns the target T5, human CD40 on cells. Briefly: flow cytometry, labelled CD40L on CD40-293T cells, antibody at 10 ug/ml. As to the method:
as §2

Assay [9] addresses T5, human CD40 on cells. Briefly: flow cytometry, labelled CD40L on CD40-293T cells, antibody at 20 ug/ml. Here is the method:
as §2

T5 sequence (P25942 21-277 limits assumed): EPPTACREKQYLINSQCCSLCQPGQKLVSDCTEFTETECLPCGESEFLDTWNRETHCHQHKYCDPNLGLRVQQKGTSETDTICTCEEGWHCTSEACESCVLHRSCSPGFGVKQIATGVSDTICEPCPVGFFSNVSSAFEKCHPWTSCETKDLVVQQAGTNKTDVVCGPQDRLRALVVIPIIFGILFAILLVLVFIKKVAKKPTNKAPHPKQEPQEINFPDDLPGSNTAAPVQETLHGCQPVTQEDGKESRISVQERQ

B1: 4G7 (antibody, IgG4, V domains shown)
VH: QVQLVQSGAEVKKPGASVKVSCKASGYTFAGYYMHWVRQAPGQGLEWMGWINPDSGGTNFAQQFQGRVTMTRDTSISTAYMEVSRLRSDDTAVFYCAREKITMTGIYFDYWGQGTLVTVSS
VL: DIQMTQSPSSLSASVGDILTITCRASQNITTYLNWYQQKPGKAPNLLISAASRLRSGVPSRFSGSGSGTDFTLTISSLQPVDFTTFYCQQTFTTPWTFGQGTKVEIKR
notes: also called 4869-1
Take B1: the binding result with human TNFR1 [1], with human TNFR2 [2] and with human TNFR14 [3] was “no binding” each time. The “fold over control (gMFI)” value with mouse CD40 on cells is 0.9 fold; with human TNFR1 [4], 0.97 fold; in the assay with human TNFR2 [5], 0.9 fold; with human TNFR14 [6] it was 0.89 fold. In addition, the “Ligand Binding Inhibition (%)” value with human CD40 on cells [7] was 24%; with human CD40 on cells [8], 14%; with human CD40 on cells [9], 3%.

B2: 30A12 (antibody, IgG4, V domains shown)
VH: EVQLLESGGGLVQPGGSLRLSCAASGFTFSRNAMSWVRQAPGKGLEWVSATGGSGISTYYADSVKGRFTISRDNSKNTLYLQMNSLRAEDTAVYYCARGYSNSWWYFDYWGQGTLVTVSS
VL: QSALTQPASVSGSPGQSITISCTGTSSDVGNYNLVSWYQQHPGKAPKLMIFEVNQRPSGVSNRFSGSKSGTTASLTISGLQAADEADYFCCSYTTSSTYVIFGGGTKLTVLG
notes: also called 4878-1
In the case of B2, the binding result with human TNFR1 [1], with human TNFR2 [2] and with human TNFR14 [3] was “no binding” in each case. Besides, the “fold over control (gMFI)” value in the assay with mouse CD40 on cells turned out to be 1.3 fold; with human TNFR1 [4] it was 1.07 fold; with human TNFR2 [5], 0.89 fold; with human TNFR14 [6] it was 0.96 fold. For the same molecule, the “Ligand Binding Inhibition (%)” value with human CD40 on cells [7] was -15%; with human CD40 on cells [8] it was -8%; in the assay with human CD40 on cells [9] it was -3%.
